Patent US20230365674 (published 2023)
Substitutions are numbered along the chain they refer to. Read-outs that look alike come from different tables or passages of the source.

B1: WW01 IgG (antibody, V domains shown)
VH: QVQLLESGGGLVQPGGSLRLSCAASGFTFNTHYIHWVRQAPGKGLEWVSSISGSGSNTYYADSVKGRFTISRDNSKNTLYLQMNSLRAEDTAVYYCARERGYVYYHMFDPWGQGTLVTVSS
VL: DIVLTQSPATLSLSPGERATLSCRASQSITRNYLAWYQQKPGQAPRLLIYGASSRATGIPARFSGSGSGTDFTLTISSLEPEDFAVYYCQQHSMYPRTFGQGTKVEIK
B2: WW06 IgG (antibody, V domains shown)
VH: QVQLVQSGAEVKKPGESLKISCKGSGYSFTSYWIAWVRQMPGKGLEWMGRIDPDNSYTRYSPSFQGQVTISADKSISTAYLQWSSLKASDTAMYYCARWLSPGYALGEQPAGMDHWGQGTLVTVSS
VL: DIVLTQPPSVSGAPGQRVTISCTGSSSNIGAGYAVHWYQQLPGTAPKLLIYSNNKRPSGVPDRFSGSKSGTSASLAITGLQAEDEADYYCQSYDLQKSSRVFGGGTKLTVL
B3: WW06 FabCys (antibody, V domains shown)
VH: B2 VH
VL: B2 VL

Assays:
human NPR1 W74R [1] = target: T1, human NPR1 W74R (human); assay: ELISA
T1 chain: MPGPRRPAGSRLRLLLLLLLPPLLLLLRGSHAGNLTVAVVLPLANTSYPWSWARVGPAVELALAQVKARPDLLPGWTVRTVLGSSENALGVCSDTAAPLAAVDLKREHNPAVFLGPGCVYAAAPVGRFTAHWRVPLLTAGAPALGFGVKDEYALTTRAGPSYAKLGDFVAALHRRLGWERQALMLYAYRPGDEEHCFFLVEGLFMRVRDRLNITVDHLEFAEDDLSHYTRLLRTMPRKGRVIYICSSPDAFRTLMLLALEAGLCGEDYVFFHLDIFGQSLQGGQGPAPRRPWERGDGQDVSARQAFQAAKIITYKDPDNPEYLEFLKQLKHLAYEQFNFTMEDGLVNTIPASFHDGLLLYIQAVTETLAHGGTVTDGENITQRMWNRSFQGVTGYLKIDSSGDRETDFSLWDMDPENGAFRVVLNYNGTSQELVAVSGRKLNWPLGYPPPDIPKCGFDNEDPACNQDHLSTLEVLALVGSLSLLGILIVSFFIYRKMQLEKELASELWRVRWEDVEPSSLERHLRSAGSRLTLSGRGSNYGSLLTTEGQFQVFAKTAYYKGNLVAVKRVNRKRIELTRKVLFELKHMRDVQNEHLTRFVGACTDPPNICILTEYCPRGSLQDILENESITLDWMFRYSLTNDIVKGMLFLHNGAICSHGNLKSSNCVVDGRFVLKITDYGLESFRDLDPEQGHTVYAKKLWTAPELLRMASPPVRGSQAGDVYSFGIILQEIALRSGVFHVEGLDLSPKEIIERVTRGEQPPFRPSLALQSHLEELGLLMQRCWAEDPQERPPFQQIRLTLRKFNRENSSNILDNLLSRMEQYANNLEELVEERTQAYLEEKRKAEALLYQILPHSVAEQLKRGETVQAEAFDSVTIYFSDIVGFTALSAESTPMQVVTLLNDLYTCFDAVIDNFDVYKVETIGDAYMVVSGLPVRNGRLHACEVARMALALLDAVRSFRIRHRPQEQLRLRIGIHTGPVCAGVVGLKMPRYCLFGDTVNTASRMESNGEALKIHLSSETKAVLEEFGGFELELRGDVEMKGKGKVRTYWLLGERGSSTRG

rat NPR1-ANP complex = target: T2, rat NPR1-ANP complex (rat); assay: ELISA
T2 chain 1: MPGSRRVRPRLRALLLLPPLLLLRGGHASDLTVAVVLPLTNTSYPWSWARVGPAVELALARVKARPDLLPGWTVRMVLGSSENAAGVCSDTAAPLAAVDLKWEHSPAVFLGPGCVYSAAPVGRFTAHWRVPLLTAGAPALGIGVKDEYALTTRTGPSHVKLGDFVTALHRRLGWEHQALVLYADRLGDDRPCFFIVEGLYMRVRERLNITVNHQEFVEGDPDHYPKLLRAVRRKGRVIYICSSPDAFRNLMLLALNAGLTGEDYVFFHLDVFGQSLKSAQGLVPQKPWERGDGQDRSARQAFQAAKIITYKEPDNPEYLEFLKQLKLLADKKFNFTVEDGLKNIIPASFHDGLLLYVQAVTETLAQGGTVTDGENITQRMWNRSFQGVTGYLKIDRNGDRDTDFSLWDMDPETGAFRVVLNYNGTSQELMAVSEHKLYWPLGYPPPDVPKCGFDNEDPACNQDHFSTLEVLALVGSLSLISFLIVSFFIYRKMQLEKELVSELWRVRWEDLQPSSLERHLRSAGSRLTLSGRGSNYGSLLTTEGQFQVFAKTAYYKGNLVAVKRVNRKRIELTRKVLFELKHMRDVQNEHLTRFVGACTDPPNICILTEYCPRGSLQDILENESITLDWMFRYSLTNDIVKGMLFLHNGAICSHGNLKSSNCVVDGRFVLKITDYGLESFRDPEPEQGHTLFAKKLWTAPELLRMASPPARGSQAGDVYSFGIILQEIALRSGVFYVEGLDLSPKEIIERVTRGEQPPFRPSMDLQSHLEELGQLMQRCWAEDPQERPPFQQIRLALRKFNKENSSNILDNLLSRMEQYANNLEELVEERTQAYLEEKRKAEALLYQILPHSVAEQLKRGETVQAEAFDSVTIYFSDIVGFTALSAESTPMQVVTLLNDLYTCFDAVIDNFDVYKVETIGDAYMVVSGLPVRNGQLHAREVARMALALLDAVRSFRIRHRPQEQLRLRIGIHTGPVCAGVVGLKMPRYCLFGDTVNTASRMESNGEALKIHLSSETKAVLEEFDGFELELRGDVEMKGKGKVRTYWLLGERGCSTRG
T2 chain 2: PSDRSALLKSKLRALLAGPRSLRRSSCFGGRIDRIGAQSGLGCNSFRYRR

human NPR1 [2] = target: T3, human NPR1 (human); assay: ELISA
T3 chain: T1 chain with R106W

human NPR3 + ANP = target: T4, human NPR3 + ANP (human, UniProt P17342); assay: ELISA
T4 chain 1: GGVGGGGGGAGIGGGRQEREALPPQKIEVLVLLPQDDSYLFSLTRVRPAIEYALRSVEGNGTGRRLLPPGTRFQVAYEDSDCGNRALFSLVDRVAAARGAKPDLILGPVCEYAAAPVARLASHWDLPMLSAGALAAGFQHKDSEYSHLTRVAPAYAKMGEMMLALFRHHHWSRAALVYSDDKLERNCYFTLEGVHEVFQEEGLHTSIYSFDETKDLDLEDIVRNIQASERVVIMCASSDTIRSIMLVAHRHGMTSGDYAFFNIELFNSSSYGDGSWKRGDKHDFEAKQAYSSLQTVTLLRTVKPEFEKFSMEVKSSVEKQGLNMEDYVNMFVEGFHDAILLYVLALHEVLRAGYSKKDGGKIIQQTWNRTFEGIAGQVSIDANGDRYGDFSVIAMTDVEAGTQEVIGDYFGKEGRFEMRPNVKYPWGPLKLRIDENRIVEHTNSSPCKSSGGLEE
T4 chain 2: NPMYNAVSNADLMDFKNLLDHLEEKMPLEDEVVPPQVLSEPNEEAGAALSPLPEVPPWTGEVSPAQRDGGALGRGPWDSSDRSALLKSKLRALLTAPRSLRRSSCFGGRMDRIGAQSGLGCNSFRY

human NPR3 = target: T5, human NPR3 (human, UniProt P17342); assay: ELISA
T5 chain: T4 chain 1

human NPR1 W74R + ANP [3] = target: T6, human NPR1 W74R + ANP (human); assay: ELISA
T6 chain 1: T1 chain
T6 chain 2: T4 chain 2

rat NPR1 = target: T7, rat NPR1 (rat); assay: ELISA
T7 chain: T2 chain 1

human NPR1-ANP complex [4] = target: T8, human NPR1-ANP complex (human); assay: ELISA
T8 chain 1: T1 chain with R106W
T8 chain 2: T4 chain 2

human NPR1 W74R + ANP [5] = target: T6, human NPR1 W74R + ANP; assay: ELISA
human NPR1 [6] = target: T3, human NPR1; assay: ELISA
human NPR1 W74R [7] = target: T1, human NPR1 W74R; assay: ELISA
human NPR1-ANP complex [8] = target: T8, human NPR1-ANP complex; assay: SPR
human NPR1 [9] = target: T3, human NPR1; assay: SPR
human NPR1-ANP complex [10] = target: T8, human NPR1-ANP complex; assay: SPR
human NPR1 [11] = target: T3, human NPR1; assay: SPR

Binder | binding result (human NPR1 W74R [1]) | binding result (rat NPR1-ANP complex) | binding result (human NPR1 [2]) | binding result (human NPR3 + ANP) | binding result (human NPR3) | binding result (human NPR1 W74R + ANP [3]) | binding result (rat NPR1) | EC50 (human NPR1-ANP complex [4]) | EC50 (human NPR1 W74R + ANP [5]) | EC50 (human NPR1 [6]) | EC50 (human NPR1 W74R [7]) | Kd (human NPR1-ANP complex [8]) | Kd (human NPR1 [9]) | Kd (human NPR1-ANP complex [10]) | Kd (human NPR1 [11])
B1 | no binding | no binding | no binding | no binding | no binding | no binding | no binding |  |  |  |  |  |  |  | 
B2 |  | no binding |  | no binding | no binding |  | no binding | 1.1 nM | 0.8 nM | 2.5 nM | 0.9 nM |  |  |  | 
B3 |  |  |  |  |  |  |  |  |  |  |  | 12 nM | 5.3 nM | 12 nM | 5.3 nM
